Test [1] relates to Pdx1-Cre GEMM model of PDAC. Description: Survival in Pdx1-Cre GEMM model of PDAC. The class given is in vivo, mouse. Conditions: 5 mg/kg i.p. q5d. Here is the method: FIGS. 12A-D. DKK3 expression in mouse PSCs and effects of treatment with DKKC mAb on survival. (FIG. 12A) Western blot analysis of recombinant human and mouse DKK3 under denaturing and non-denaturing conditions using JM6-6-1 mAb. (FIG. 12B) Expression of murine DKK3 in murine PSCs (MPSC) or 3T3 cells was determined by RT-PCR. 18S was used as loading control. (FIG. 12C) Proliferation of MPSCs treated with DKK3 mAb was measured at 7 days by MTS assay. ***p<0.001 vs. PBS. (FIG. 12D) Pdx1-Cre; Kras LSL-G12D;Trp53fl/+ model of PDAC was treated with DKK3 mAb JM6-6-1 or control mAb JM4-74 (5 mg/kg i.p. q5d). Kaplan-Meier survival curves are shown (log rank test). At 0% survival, the right line is JM6-6-1, the middle lines is PBS, and the left line is Control Ab.
Two GEMMs of PDAC that differ in the pancreas-specific promoter to target oncogenic Kras expression (Hingorani et al., 2005; Hingorani et al., 2003) were used in the experiments to evaluate the effect of DKK3 neutralizing mAb (Pdx1-Cre; Kras^LSL-G12D; Trp53^R172H/+ and P48-Cre; Kras^LSL-G12D; Trp53^fl/fl). To evaluate the effects of genetic ablation of DKK3 on pancreatic cancer development, DKK3-null mice were crossed to P48-Cre; Kras^LSL-G12D;Trp53^R172H or P48-Cre; Kras^LSL-G12D; Trp53^fl/fl mice (Hingorani et al., 2005; Hingorani et al., 2003), and the progeny were monitored until they were moribund. […]

The test system of test [2] is KPC cells. Kind of test: Syngeneic orthotopic model with luciferase-labeled KPC cells in C57/BL6 mice. The class given is in vivo, mouse. Here is the method: FIGS. 6A-F. DKK3 blockade is associated with increased tumor immune infiltrates and improves response to checkpoint inhibitor therapy. (FIG. 6A) T cells were stimulated, treated with DKK3 (5-10 μg/mL) and proliferation was measured by CFSE assay. In a syngeneic orthotopic model with luciferase-labeled KPC cells, tumors were examined for CD3 and CD8 expression by IHC (FIG. 6B) and additional markers of T cell activity were measured by quantitative PCR (FIG. 6C). Mice in this model were treated with either control IgG, DKK3 mAb JM6-6-1, αCTLA4 or the combination JM6-6-1+αCTLA4 and tumor growth was measured by IVIS imaging to 25 and 190 days (FIG. 6D). Survival in this orthotopic implantation model is shown in (FIG. 6E). Using a GEMM (FIG. 6F), KPC/DKK3^+/+ (black line) or KPC/DKK3^−/− (blue line) mice were treated with αCTLA4 or control IgG and the Kaplan Meier survival curve is shown. *p<0.05, **p<0.01, ***p<0.001.
An orthotopic nude mouse model of PDAC using BxPC3 cancer cells labeled with firefly luciferase (BxPC3-FL) co-injected with HPSCs has been previously described (Hwang et al., 2008). Mice received intrapancreatic injections of BxPC3-FL (1×10^6 per mouse) with HPSC-shControl or HPSC-shDKK3 in a tumor-to-stroma ratio of 1:0 or 1:3 in 50-μL of HBSS and tumor growth was monitored using IVIS imaging (Hwang et al., 2008). In addition, a syngeneic immunocompetent DKK3 null model was used, provided by Dr. C. Niehrs (Barrantes Idel et al., 2006), that was injected with murine PDAC cells (termed “KPC cells”) isolated from tumors arising in a GEMM of PDAC (Pdx1-Cre; Kras^LSL-G12D;Trp53^R172H/+) (Hingorani et al., 2005; Hingorani et al., 2003) and labeled with luciferase.
In order to determine whether manipulation of DKK3 can affect the response to checkpoint inhibitors, mice in the syngeneic orthotopic C57/BL6 model were treated with either isotype control IgG, DKK3 mAb JM6-6-1, α-CTLA4 or the combination of JM6-6-1 with α-CTLA4. […] With additional follow-up to day 200 (FIG. 6D, right), tumors in all groups continued to grow albeit at a slower rate in the JM6-6-1 and combination JM6-6-1+α-CTLA4 groups (FIG. 6D). […] Combination treatment JM6-6-1+α-CTLA4 was associated with a highly significant improvement in survival (p=0.004) and median survival was not reached in this group (FIG. 6E). […] In the combination treatment group, 80% of mice were alive and appeared healthy at 800 days and were electively sacrificed. In the JM6-6-1 group, 20% of mice were still alive at 726 days when they were electively sacrificed.

B1: JM6-6-1: monoclonal antibody against human DKK3; heavy chain variable SEQ ID NO: 19, light chain variable SEQ ID NO: 20 (antibody, V domains shown)
VH: EVKLVESGGGLVKPGGSLKLSCAASGFTFTIEYMAWIRQTPEKRLEWVASISSGGDDIYYADNVKGRFTISRDNAKNTLYLQMSSLKSEDTAIYYCSRSLSDWGQGTTLTVSSAKTTPPSDYPLA
VL: MTQTPLSLPVSLGDQASISCRSSQSILHSNGHTYLEWYLQKPGQSPKLLIYKVSNRFSGVPDRFSGSGSGTDFTLKISRVEAEDLGVYYCFQGSHVPFTFGSGTKLEIERADAAQ
As to B1, in test [1], the effect on survival result is “equally effective”. Besides, in test [2] (726 days), the “mice alive at 726 days” value turned out to be 20%. For the same molecule, the “gross tumors in pancreata of remaining mice” value in test [2] (at elective sacrifice) is “no gross tumors were identified”. Besides, the “tumor growth by luciferase signal” value in test [2] (compared to control IgG) is “growth inhibition at 22 days and onward”. Besides, the median survival in test [2] (syngeneic orthotopic C57/BL6 model) was determined as 75 days.

The record behind these values is patent US20210340232A1, “MONOCLONAL ANTIBODIES AGAINST HUMAN DICKKOPF3 AND USES THEREOF” (Board of Regents, The University of Texas System, priority 2018, published 2021).
